Experimental data published in paper PMC6538746, “Rice transcription factor OsMADS57 regulates plant height by modulating gibberellin catabolism”.

B1: EUI1 promoter CArG probe (dsDNA)
DNA 1: GCCTTTCCCTTTGTTACTGTTGCATATAAAAGATCATCAATGT
DNA 2: ACATTGATGATCTTTTATATGCAACAGTAACAAAGGGAAAGGC
B2: OsGA2ox3 promoter CArG probe (dsDNA)
DNA 1: TAGCACGAGGGAAAACCCTTTAAAAAGACAGACAAGGCAGACG
DNA 2: CGTCTGCCTTGTCTGTCTTTTTAAAGGGTTTTCCCTCGTGCTA

Biological target: OsMADS57 (Oryza sativa, UniProt Q6Z6W2 1-241)
Test: EMSA; competed by unlabeled probe; LightShift Chemiluminescent EMSA Kit (Thermo); buffer, salt, pH and temperature not stated
Conditions: protein: recombinant; tags: His (pET32a(+) vector-encoded tags); chain copies: 2; label: biotin 3' end; blunt

Chain of OsMADS57 (Q6Z6W2 whole entry): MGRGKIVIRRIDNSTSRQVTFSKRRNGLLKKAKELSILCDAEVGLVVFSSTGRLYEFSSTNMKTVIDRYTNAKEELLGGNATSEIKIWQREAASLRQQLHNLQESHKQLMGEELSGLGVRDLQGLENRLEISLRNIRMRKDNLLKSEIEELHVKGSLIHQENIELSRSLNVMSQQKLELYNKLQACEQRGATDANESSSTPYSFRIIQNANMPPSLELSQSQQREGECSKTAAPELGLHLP

Binder	binding result
B1	binds
B2	binds
